Source: patent publication US20240368233A1 (University of Washington, published 2024)

What was measured:
[1] = target: the molecule itself; test: SEC titration of the C4 hub alone (normalised A230, concentrations per monomer) and negative-stain EM; self-association of hubs
[2] = target: T1, DF284B; test: SEC of mixed components; trimer listed in Table 6
T1 construct: Bivalent connector
T1 chain: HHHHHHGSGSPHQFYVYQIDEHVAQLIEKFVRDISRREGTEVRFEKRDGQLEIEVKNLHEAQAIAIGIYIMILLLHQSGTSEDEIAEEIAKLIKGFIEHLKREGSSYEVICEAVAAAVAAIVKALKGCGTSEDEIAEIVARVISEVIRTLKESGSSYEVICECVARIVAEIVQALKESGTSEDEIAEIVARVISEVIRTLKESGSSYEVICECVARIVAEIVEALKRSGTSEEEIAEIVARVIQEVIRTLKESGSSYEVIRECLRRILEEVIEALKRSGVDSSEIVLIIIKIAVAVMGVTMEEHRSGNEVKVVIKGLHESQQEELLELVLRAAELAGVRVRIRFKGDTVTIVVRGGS

[3] = target: T2, LHD101 B8; test: SEC binding assay (Superdex 200, normalised A230) of A, B and the mixture AB
T2 single chain, LHD101 chain B fused to DHR8: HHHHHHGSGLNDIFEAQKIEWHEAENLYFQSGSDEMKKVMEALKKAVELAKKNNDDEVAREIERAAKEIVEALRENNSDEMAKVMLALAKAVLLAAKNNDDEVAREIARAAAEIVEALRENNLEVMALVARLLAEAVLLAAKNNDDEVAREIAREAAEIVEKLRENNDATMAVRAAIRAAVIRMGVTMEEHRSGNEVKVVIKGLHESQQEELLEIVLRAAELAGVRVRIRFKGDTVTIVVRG

[4] = target: T3, 101B14; test: as above
T3 construct: also called LHD101 B14
T3 single chain, LHD101 chain B fused to DHR14: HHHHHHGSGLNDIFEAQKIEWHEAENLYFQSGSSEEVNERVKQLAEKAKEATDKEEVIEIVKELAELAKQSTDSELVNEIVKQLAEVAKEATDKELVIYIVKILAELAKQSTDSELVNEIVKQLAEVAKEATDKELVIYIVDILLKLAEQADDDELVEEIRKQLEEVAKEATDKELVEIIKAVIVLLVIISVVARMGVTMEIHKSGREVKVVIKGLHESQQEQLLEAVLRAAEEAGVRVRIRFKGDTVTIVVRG

[5] = target: T4, 101B62; test: as above
T4 construct: also called LHD101B62
T4 chain: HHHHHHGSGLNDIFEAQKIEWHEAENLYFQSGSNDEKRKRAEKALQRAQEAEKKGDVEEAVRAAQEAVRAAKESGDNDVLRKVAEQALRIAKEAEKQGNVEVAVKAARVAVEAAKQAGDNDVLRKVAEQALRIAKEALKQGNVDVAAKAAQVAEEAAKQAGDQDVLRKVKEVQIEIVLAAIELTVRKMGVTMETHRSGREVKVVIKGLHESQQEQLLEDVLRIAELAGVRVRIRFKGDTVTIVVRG

[6] = target: T5, 101B82; test: as above
T5 chain: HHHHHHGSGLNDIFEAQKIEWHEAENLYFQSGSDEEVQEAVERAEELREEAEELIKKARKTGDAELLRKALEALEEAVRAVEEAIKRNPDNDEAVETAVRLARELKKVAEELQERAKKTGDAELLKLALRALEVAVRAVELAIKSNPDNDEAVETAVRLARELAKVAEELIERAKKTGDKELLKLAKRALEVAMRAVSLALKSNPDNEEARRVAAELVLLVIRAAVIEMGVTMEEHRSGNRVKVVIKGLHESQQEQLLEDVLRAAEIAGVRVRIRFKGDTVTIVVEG

[7] = target: the molecule itself; test: SEC titration of the protomer alone at several injection concentrations (Superdex 200, normalised A230); self-association
[8] = target: T6, LHD29 chainB; test: BLI, steady state fit
T6 construct: also called LHD29B; 29B
T6 chain: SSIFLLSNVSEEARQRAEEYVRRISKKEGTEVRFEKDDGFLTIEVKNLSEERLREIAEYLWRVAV
Experimental: (§1) Biolayer interferometry experiments were performed on an OctetRED96 BLI system (ForteBio, Menlo Park, CA). Streptavidin coated biosensors were first equilibrated for at least 10 minutes in Octet buffer (10 mM HEPES pH 7.4, 150 mM NaCl, 3 mM EDTA, 0.05% Surfactant P20) supplemented with 1 mg/ml Bovine Serum Albumin (SigmaAldrich). Enzymatically biotinylated designs were immobilized onto the biosensors by dipping the biosensors into a solution with 10-50 nM protein for 30-120 s. This was followed by dipping in fresh octet buffer to establish a baseline for 120 s. Titration experiments were performed at 25° C. while rotating at 1,000 r.p.m. Association of designs was allowed by dipping biosensors in solutions containing designed protein diluted in octet buffer until equilibrium was approached followed by dissociation by dipping the biosensors into fresh buffer solution in order to monitor the dissociation kinetics. Steady-state and global kinetic fits were performed using the manufacturer's software (Data Analysis 9.1) assuming a 1:1 binding model.

[9] = target: the molecule itself; test: BLI conditions (self-association)
[10] = target: T6, LHD29 chainB; test: BLI, global kinetic fit, 1:1 model
Experimental: as §1

[11] = target: T7, LHD206 chainB; test: BLI, steady state fit
T7 construct: also called LHD206B
T7 chain: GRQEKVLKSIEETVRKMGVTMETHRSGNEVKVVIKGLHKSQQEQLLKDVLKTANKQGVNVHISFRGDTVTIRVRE
Experimental: as §1

[12] = target: T7, LHD206 chainB; test: BLI, global kinetic fit, 1:1 model
Experimental: as §1

[13] = target: T8, DFA0; test: SEC of mixed components; trimer listed in Table 6
T8 construct: Bivalent connector
T8 chain: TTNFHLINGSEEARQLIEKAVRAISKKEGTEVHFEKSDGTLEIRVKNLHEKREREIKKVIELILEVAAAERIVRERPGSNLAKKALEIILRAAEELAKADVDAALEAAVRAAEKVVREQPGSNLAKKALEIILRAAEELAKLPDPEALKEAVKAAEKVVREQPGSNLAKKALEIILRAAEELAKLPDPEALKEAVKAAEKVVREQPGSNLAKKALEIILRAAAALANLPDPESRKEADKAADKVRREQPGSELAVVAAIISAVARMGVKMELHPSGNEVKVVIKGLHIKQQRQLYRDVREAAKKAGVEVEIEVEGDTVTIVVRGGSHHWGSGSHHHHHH

[14] = target: T9, 202B57; test: SEC of mixed components; linear tetramer listed in Table 6, neighbours in the chain
T9 chain: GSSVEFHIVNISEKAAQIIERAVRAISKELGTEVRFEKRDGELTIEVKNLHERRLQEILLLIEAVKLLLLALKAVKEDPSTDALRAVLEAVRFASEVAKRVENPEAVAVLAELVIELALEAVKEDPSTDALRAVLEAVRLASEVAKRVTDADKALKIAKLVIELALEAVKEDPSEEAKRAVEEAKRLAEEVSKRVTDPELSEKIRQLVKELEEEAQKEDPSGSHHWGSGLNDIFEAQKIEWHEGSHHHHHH
Experimental: Complexes and individual components were diluted in 20 mM Tris pH 8.0, 100 mM NaCl. After o/n equilibration of the mixtures at room temperature or 4 degrees C., 500 ul of sample was injected onto a Superdex™ 200 10/300 increase GL (dimers, linear assemblies) or Superose™ 6 increase 10/300 GL (symmetric assemblies) (all columns from GE healthcare) using the absorbance at 230 nm or 473 nm (for GFP tagged components) as read-out. Dimers were mixed at monomer concentrations of 5 μM or higher. Trimer and ABCD tetramer mixtures contained 5 μM of the bivalent connector, and 7.5 μM of each terminal cap (lower absolute concentrations with the same ratios were used for some trimers). ABCA tetramer mixtures contained 5 μM per bivalent connector and 15 μM terminal cap. The hexamer mixture contained 3 μM of components C and D, 3.6 μM of B and E, and 4.4 μM of A and F. The branched assembly shown in FIG. 4A contained 2.8 μM of the trivalent connector and 4 μM of each cap. For the exchange experiment shown in FIG. 5A, the ABC trimer was preincubated at concentrations of 6 μM B and 9 μM each of A and C. C′ was then added to reach a final concentration of 2 μM B, 3 μM each of A and C, and 6 μM C′.

B1: C4-Hub (designed binder)
chain: GNTHFIVVHGSEDAAQLAEELVREISKKEGTEVRFEKKDGLLSIEVKNLSEERQREIQKALQLVQDVANAERVVRERPGSNLAKKALEIILRAAEELAKLDLKASLKAAVRAAEKVVREQPGSELAKKALEIILRAAEELAKLPDPEALHEAVRAAEHVVRSQPGSEAAKEALRIIQEAAELLKESPDPTAIIRAARALLKIARTTGDEEAAKEAIEAAKKAADLARERGDDELVCEALALLVAAQVELLKQQGTSAVEIAKIVARVISEVIRTLKEKGSSYEVICECVARIVAEIVEALKRSGTSAAIIALIVALVISEVIRTLKESGSSFEVILECVIRIVLEIIEALKRSGTSEQDVMLIVMAVLLVVLATLQLSGSGSLEHHHHHH
notes: C4-symmetric homo-oligomeric hub carrying LHD274B; also called C4 53; C4-symmetric hub
- binding result [1]: binds

B2: 101A53 (designed binder)
chain: HHHHHHGSGLNDIFEAQKIEWHEAENLYFQSGSNDEKEKLKELLKRAEELAKSPDPEDLKEAVRLAEEVVRERPGSNLAKKALEIILRAAEELAKLPDPEALKEAVKAAEKVVREQPGSNLAKKALEIILRAAAALANLPDPESRKEADKAADKVRREQPGSELAVVAAIISAVARMGVKMELHPSGNEVKVVIKGLHIKQQRQLYRDVREAAKKAGVEVEIEVEGDTVTIVVRG
notes: also called LHD101A53
- binding result [2]: binds
- binding result [3]: binds
- binding result [4]: binds
- binding result [5]: binds
- binding result [6]: binds
- binding result [7]: no binding

B3: LHD29 chainA (designed binder)
chain: TWQWVLINISEEARQRIEEYVRRISKKEGTEVHFEKDDGVLHIRVKNLHEKRAREIHEYAKRVIL
notes: also called LHD29A; 29A
- Kd [8]: 310 nM
- binding result [9]: binds
- Kd [10]: 985 nM
- koff [10]: 0.00068 s⁻¹
- kon [10]: 690 M⁻¹ s⁻¹

B4: LHD206 chainA (designed binder)
chain: TDELLERLRQLFEELHERGTEIVVEVHINGRKTEIEVQGIDKRLLKIILEVIREEIEREGSSEVEVNVHSGGQTWTFNEK
notes: also called LHD206A
- Kd [11]: 8.4 nM
- Kd [12]: 2.8 nM
- koff [12]: 0.00075 s⁻¹
- kon [12]: 270000 M⁻¹ s⁻¹

B5: DF202 (designed binder)
chain: NTHFIVVHGTEEARQLAEEIVRLIAEALGTEVRFEKKDGLLSIEVKNLPEEAQRLIQKLLQLAVRIAQAAKSGDNDQLRELAEDALRLAKEAEKLGDLGAAAVAARLAVEAAKQAGDNDVLRKVAEQALRIAKEAEKQGLVDVAVEAARVAVEAAKQAGDNDVLRKVAEQALRIAKEAEKQGNVEVAVKAARVAVEAAKQAGDNDVLRKVAEQALRIVREALKQGNKEVAKKALEVAIEAANQAGDQKLLAEILLLAIEVLVVEMGVTMETHKSGNKVKVVIKGLHESQQETLRKLVHELLRKLGVVAVTQKHGDTVTIYVTEGGSHHWGSGSHHHHHH
notes: Bivalent connector
- binding result [13]: binds
- binding result [14]: binds
